Reference: patent US20240247079A1 (NANJING ANJI BIOLOGICAL TECHNOLOGY, published 2024)
Changes are numbered by the printed parent chain. Blank lines part the entries; values can stand above or below the binder they belong to.

Experiments:
[1] = target: T1, HMMW micropeptide (recombinant, purified from Escherichia coli BL21) (human); experiment: indirect ELISA, HMMW micropeptide coated at 1 ug/ml, antibody dilution 1:25K
T1 construct: also called purified HMMW micropeptide; human HMMW micropeptide
T1 peptide: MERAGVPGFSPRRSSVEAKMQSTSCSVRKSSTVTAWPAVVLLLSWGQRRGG
Method: (§1) The antigen coating concentration of the HMMW micropeptide was 1 μg/ml and 5% milk PBS-T was used for sealing. The dilution multiples of eight antibodies were: 1: 3.125 K/6.25 K/12.5 K/25 K/5O K/100 K. The primary antibodies were incubated at 37° C. for 1 h and the secondary antibodies were incubated at 37° C. for 45 min. A color developing solution was added, reaction was performed at 37° C. for 15 min, the reaction was terminated, and the value was read. It can be seen from Table 2 below that the titers of the eight antibodies all reached 1: 100 K, meeting the requirements for subsequent antigen detection.

[2] = target: T1, HMMW micropeptide (recombinant, …); experiment: indirect ELISA, HMMW micropeptide coated at 1 ug/ml, antibody dilution 1:3.125K
Method: as §1

[3] = target: T1, HMMW micropeptide (recombinant, …); experiment: indirect ELISA, HMMW micropeptide coated at 1 ug/ml
Method: as §1

[4] = target: T1, HMMW micropeptide (recombinant, …); experiment: indirect ELISA, HMMW micropeptide coated at 1 ug/ml, antibody dilution 1:100K
Method: as §1

[5] = target: T1, HMMW micropeptide (recombinant, …); experiment: indirect ELISA, HMMW micropeptide coated at 1 ug/ml, antibody dilution 1:12.5K
Method: as §1

[6] = target: T1, HMMW micropeptide (recombinant, …); experiment: indirect ELISA, HMMW micropeptide coated at 1 ug/ml, antibody dilution 1:6.25K
Method: as §1

[7] = target: T1, HMMW micropeptide (recombinant, …); experiment: indirect ELISA, HMMW micropeptide coated at 1 ug/ml, antibody dilution 1:50K
Method: as §1

ELISA reading at antibody dilution 1:25K [1]: 3.19
ELISA reading at antibody dilution 1:3.125K [2]: 3.33
titer [3]: ≥ 100000 dilution (1:x)
ELISA reading at antibody dilution 1:100K [4]: 2.73
ELISA reading at antibody dilution 1:12.5K [5]: 3.23
ELISA reading at antibody dilution 1:6.25K [6]: 3.35
ELISA reading at antibody dilution 1:50K [7]: 2.94
B1: Anti-HMMW antibody-2 (antibody, V domains shown)
VH: EVKLEESGGGLVQPGGSMKVSCVGSGFTFSNYWMNWVRQSPEKGLEWVAEIRLKSNNYATHYAESVKGRFTISRDDSKRSVYLQMNNLRVEDTGIYYCTTEAVDYWGQGTSVTVSS
VL: DIVMTQAAFSNPVTLGTSASISCRSSKSLLHSNGITYLYWYLQKPGQSPQLLIYQMSNLASGVPDRFSSSGSGTDFTLRISRVEAEDVGVYYCAQNLELPTFGGGTKLEIKR
notes: Mouse monoclonal antibody from a BALB/c x SP2/0 hybridoma; also called anti-HMMW-2 antibody

ELISA reading at antibody dilution 1:25K [1]: 2.55
ELISA reading at antibody dilution 1:3.125K [2]: 3.37
titer [3]: ≥ 100000 dilution (1:x)
ELISA reading at antibody dilution 1:100K [4]: 2.16
ELISA reading at antibody dilution 1:12.5K [5]: 2.96
ELISA reading at antibody dilution 1:6.25K [6]: 3.19
ELISA reading at antibody dilution 1:50K [7]: 2.2
B2: Anti-HMMW antibody-6 (antibody, V domains shown)
VH: B1 VH with V20L, G24A, K67T, R79S, V90A, T100L
VL: DIVMTQAAFSNPVTLGTSASISCRSSKSLLHSDGITYLYWFLQKPGQSPQLLIYQMSNLASGVPDRFSSSGSGTDFTLRISRVEAEDVGVYYCAQNLELPTFGGGTKLEIK
notes: Mouse monoclonal antibody from a BALB/c x SP2/0 hybridoma; also called anti-HMMW-6 antibody

ELISA reading at antibody dilution 1:25K [1]: 3.04
ELISA reading at antibody dilution 1:3.125K [2]: 3.57
titer [3]: ≥ 100000 dilution (1:x)
ELISA reading at antibody dilution 1:100K [4]: 2.54
ELISA reading at antibody dilution 1:12.5K [5]: 3.22
ELISA reading at antibody dilution 1:6.25K [6]: 3.4
ELISA reading at antibody dilution 1:50K [7]: 2.92
B3: Anti-HMMW antibody-3 (antibody, V domains shown)
VH: EVKLEESGGGLVQPGGSMKLSCVASGFTFSDYWMNWVRQSPEKGLEWLTEIRLKSDNYATHYAESVKGKFTISRDDSKSTVYLQMNNLRAEDTGIYYCSVETMDFWGQGTSVTVSS
VL: QAVVTQESALTTSPGETVTLTCRSSIGAVTTNNYANWVQEKPDRLFTGLIRGTNNRVPGVPARFSGSLIGDKAALTITGAQTEDEAIYFCALWYSNHWVFGGGTKLTVL
notes: Mouse monoclonal antibody from a BALB/c x SP2/0 hybridoma; also called anti-HMMW-3 antibody

ELISA reading at antibody dilution 1:25K [1]: 3.13
ELISA reading at antibody dilution 1:3.125K [2]: 3.52
titer [3]: ≥ 100000 dilution (1:x)
ELISA reading at antibody dilution 1:100K [4]: 2.57
ELISA reading at antibody dilution 1:12.5K [5]: 3.35
ELISA reading at antibody dilution 1:6.25K [6]: 3.45
ELISA reading at antibody dilution 1:50K [7]: 2.81
B4: Anti-HMMW antibody-4 (antibody, V domains shown)
VH: B3 VH with D56N, A59L, K69R, T80S, F105Y, T110I
VL: B3 VL with P14S, I26T, N32S, R44H, V57A
notes: Mouse monoclonal antibody from a BALB/c x SP2/0 hybridoma; also called anti-HMMW-4 antibody

ELISA reading at antibody dilution 1:25K [1]: 2.13
ELISA reading at antibody dilution 1:3.125K [2]: 2.85
titer [3]: ≥ 100000 dilution (1:x)
ELISA reading at antibody dilution 1:100K [4]: 1.14
ELISA reading at antibody dilution 1:12.5K [5]: 2.38
ELISA reading at antibody dilution 1:6.25K [6]: 2.59
ELISA reading at antibody dilution 1:50K [7]: 1.85
B5: Anti-HMMW antibody-1 (antibody, V domains shown)
VH: EVKLEESGGGLVQPGGSMKFSCVASGFTFSNYWMNWVRQSPERGLEWVAEIKLKSNNYATLYAESVKGRFTISRDDSKSSVYLQVNNLRAEDTGIYYCITEIFDYWGQGTTLTVSS
VL: QAVVTQESALTTSPGETVTLTCRSSTGAVTTSNYATWVQEKPDHLFTGLIVGANNRAPGVPARFSGSLIGDKAALTITGAQTEDEAIYFCALWFLNHWVFGGGTKLTVLG
notes: Mouse monoclonal antibody from a BALB/c x SP2/0 hybridoma; also called anti-HMMW-1 antibody

ELISA reading at antibody dilution 1:25K [1]: 2.97
ELISA reading at antibody dilution 1:3.125K [2]: 3.45
titer [3]: ≥ 100000 dilution (1:x)
ELISA reading at antibody dilution 1:100K [4]: 2.79
ELISA reading at antibody dilution 1:12.5K [5]: 3.11
ELISA reading at antibody dilution 1:6.25K [6]: 3.16
ELISA reading at antibody dilution 1:50K [7]: 2.96
B6: Anti-HMMW antibody-8 (antibody, V domains shown)
VH: B5 VH with F20V, R43K, N56D, N57I, Y58D, L61N, Y82S, V85M, I99S
VL: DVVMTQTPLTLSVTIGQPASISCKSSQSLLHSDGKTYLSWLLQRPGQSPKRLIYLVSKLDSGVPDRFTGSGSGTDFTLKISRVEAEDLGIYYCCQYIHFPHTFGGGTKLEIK
notes: Mouse monoclonal antibody from a BALB/c x SP2/0 hybridoma; also called anti-HMMW-8 antibody

ELISA reading at antibody dilution 1:25K [1]: 2.48
ELISA reading at antibody dilution 1:3.125K [2]: 2.92
titer [3]: ≥ 100000 dilution (1:x)
ELISA reading at antibody dilution 1:100K [4]: 2
ELISA reading at antibody dilution 1:12.5K [5]: 2.56
ELISA reading at antibody dilution 1:6.25K [6]: 2.81
ELISA reading at antibody dilution 1:50K [7]: 2.31
B7: Anti-HMMW antibody-5 (antibody, V domains shown)
VH: B5 VH with F20L, A24V, E64A, A90T
VL: QTVVTQESALTTSPGETVTLTCRSSTGSVTTSNYATWVQEKPDHLFTGLIVGANNRAPGVPARFSGSLIGDKAALTITGAQTEDEAIYFCALWFIDHWVFGGGTKLTVL
notes: Mouse monoclonal antibody from a BALB/c x SP2/0 hybridoma; also called anti-HMMW-5 antibody

ELISA reading at antibody dilution 1:25K [1]: 2.15
ELISA reading at antibody dilution 1:3.125K [2]: 2.4
titer [3]: ≥ 100000 dilution (1:x)
ELISA reading at antibody dilution 1:100K [4]: 1.7
ELISA reading at antibody dilution 1:12.5K [5]: 2.27
ELISA reading at antibody dilution 1:6.25K [6]: 2.26
ELISA reading at antibody dilution 1:50K [7]: 2.14
B8: Anti-HMMW antibody-7 (antibody, V domains shown)
VH: B5 VH with M18K, F20L, V23F, R43K, K52Q, L61H, V85M, I99T, Y105F
VL: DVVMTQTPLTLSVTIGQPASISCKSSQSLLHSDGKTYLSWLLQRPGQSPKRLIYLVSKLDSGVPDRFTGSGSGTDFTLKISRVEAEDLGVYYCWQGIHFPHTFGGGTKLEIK
notes: Mouse monoclonal antibody from a BALB/c x SP2/0 hybridoma; also called anti-HMMW-7 antibody
